{
  "source": "paper PMC2148210",
  "about": "(The Journal of Cell Biology, 1999)",
  "target": "microtubules assembled from bovine brain phosphocellulose-tubulin with taxol (bovine, UniProt Q6B856 1-445)",
  "sequence (Q6B856 whole entry, looked up)": "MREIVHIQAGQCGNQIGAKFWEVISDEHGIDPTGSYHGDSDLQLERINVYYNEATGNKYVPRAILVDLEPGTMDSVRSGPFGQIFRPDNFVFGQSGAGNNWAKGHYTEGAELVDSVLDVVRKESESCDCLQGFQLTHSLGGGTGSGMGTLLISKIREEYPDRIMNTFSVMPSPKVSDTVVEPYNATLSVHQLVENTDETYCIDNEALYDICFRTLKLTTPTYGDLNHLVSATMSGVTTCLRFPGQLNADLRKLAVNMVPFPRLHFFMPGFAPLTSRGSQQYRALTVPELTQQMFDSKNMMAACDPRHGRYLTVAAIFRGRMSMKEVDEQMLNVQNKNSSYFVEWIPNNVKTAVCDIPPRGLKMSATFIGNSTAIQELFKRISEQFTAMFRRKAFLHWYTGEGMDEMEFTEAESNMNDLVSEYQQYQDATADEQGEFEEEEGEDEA",
  "experiment": "co-sedimentation",
  "data": [
    {"binder": "GMAP-210 (Golgi microtubule-associated protein 210), endogenous (natural protein, human (endogenous in HeLa), UniProt Q15643 1-1979, looked up) MSSWLGGLGSGLGQSLGQVGGSLASLTGQISNFTKDMLMEGTEEVEAELPDSRTKEIEAIHAILRSENERLKKLCTDLEEKHEASEIQIKQQSTSYRNQLQQKEVEISHLKARQIALQDQLLKLQSAAQSVPSGAGVPATTASSSFAYGISHHPSAFHDDDMDFGDIISSQQEINRLSNEVSRLESEVGHWRHIAQTSKAQGTDNSDQSEICKLQNIIKELKQNRSQEIDDHQHEMSVLQNAHQQKLTEISRRHREELSDYEERIEELENLLQQGGSGVIETDLSKIYEMQKTIQVLQIEKVESTKKMEQLEDKIKDINKKLSSAENDRDILRREQEQLNVEKRQIMEECENLKLECSKLQPSAVKQSDTMTEKERILAQSASVEEVFRLQQALSDAENEIMRLSSLNQDNSLAEDNLKLKMRIEVLEKEKSLLSQEKEELQMSLLKLNNEYEVIKSTATRDISLDSELHDLRLNLEAKEQELNQSISEKETLIAEIEELDRQNQEATKHMILIKDQLSKQQNEGDSIISKLKQDLNDEKKRVHQLEDDKMDITKELDVQKEKLIQSEVALNDLHLTKQKLEDKVENLVDQLNKSQESNVSIQKENLELKEHIRQNEEELSRIRNELMQSLNQDSNSNFKDTLLKEREAEVRNLKQNLSELEQLNENLKKVAFDVKMENEKLVLACEDVRHQLEECLAGNNQLSLEKNTIVETLKMEKGEIEAELCWAKKRLLEEANKYEKTIEELSNARNLNTSALQLEHEHLIKLNQKKDMEIAELKKNIEQMDTDHKETKDVLSSSLEEQKQLTQLINKKEIFIEKLKERSSKLQEELDKYSQALRKNEILRQTIEEKDRSLGSMKEENNHLQEELERLREEQSRTAPVADPKTLDSVTELASEVSQLNTIKEHLEEEIKHHQKIIEDQNQSKMQLLQSLQEQKKEMDEFRYQHEQMNATHTQLFLEKDEEIKSLQKTIEQIKTQLHEERQDIQTDNSDIFQETKVQSLNIENGSEKHDLSKAETERLVKGIKERELEIKLLNEKNISLTKQIDQLSKDEVGKLTQIIQQKDLEIQALHARISSTSHTQDVVYLQQQLQAYAMEREKVFAVLNEKTRENSHLKTEYHKMMDIVAAKEAALIKLQDENKKLSTRFESSGQDMFRETIQNLSRIIREKDIEIDALSQKCQTLLAVLQTSSTGNEAGGVNSNQFEELLQERDKLKQQVKKMEEWKQQVMTTVQNMQHESAQLQEELHQLQAQVLVDSDNNSKLQVDYTGLIQSYEQNETKLKNFGQELAQVQHSIGQLCNTKDLLLGKLDIISPQLSSASLLTPQSAECLRASKSEVLSESSELLQQELEELRKSLQEKDATIRTLQENNHRLSDSIAATSELERKEHEQTDSEIKQLKEKQDVLQKLLKEKDLLIKAKSDQLLSSNENFTNKVNENELLRQAVTNLKERILILEMDIGKLKGENEKIVETYRGKETEYQALQETNMKFSMMLREKEFECHSMKEKALAFEQLLKEKEQGKTGELNQLLNAVKSMQEKTVVFQQERDQVMLALKQKQMENTALQNEVQRLRDKEFRSNQELERLRNHLLESEDSYTREALAAEDREAKLRKKVTVLEEKLVSSSNAMENASHQASVQVESLQEQLNVVSKQRDETALQLSVSQEQVKQYALSLANLQMVLEHFQQEEKAMYSAELEKQKQLIAEWKKNAENLEGKVISLQECLDEANAALDSASRLTEQLDVKEEQIEELKRQNELRQEMLDDVQKKLMSLANSSEGKVDKVLMRNLFIGHFHTPKNQRHEVLRLMGSILGVRREEMEQLFHDDQGGVTRWMTGWLGGGSKSVPNTPLRPNQQSVVNSSFSELFVKFLETESHPSIPPPKLSVHDMKPLDSPGRRKRDTNAPESFKDTAESRSGRRTDVNPFLAPRSAAVPLINPAGLGPGGPGHLLLKPISDVLPTFTPLPALPDNSAGVVLKDLLKQ", "values": [
      {"measurement": "fold increase of bound protein, sheared against unsheared microtubules", "result": 1.8, "unit": "fold"}
    ]}
  ]
}
